Legend:
Human IL-11 [1] = molecular target: T1, Human IL-11 (human, UniProt P20809 22-199); assay: SPR, BIAcore T200; KD from kd/ka
T1 construct: Recombinant human IL-11 (GenScript Cat. No. Z03108-1) or IL-11 secreted by human cells; the mature form is said to have 178 residues; also called recombinant human IL-11; endogenously produced IL-11
T1 sequence: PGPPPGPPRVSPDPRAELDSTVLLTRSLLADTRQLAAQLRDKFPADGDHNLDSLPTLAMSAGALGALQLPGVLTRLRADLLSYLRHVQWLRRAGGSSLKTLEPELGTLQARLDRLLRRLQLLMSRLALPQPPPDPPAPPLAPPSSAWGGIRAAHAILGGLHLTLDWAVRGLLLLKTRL
Method: (§1) Real-time binding kinetics of anti-IL-11 antibody BSN-3C6 to human and mouse IL-11 were measured by surface plasmon resonance (SPR) using a BIAcore T200 system (GE Healthcare, USA). The association and dissociation were measured for 250 s and 500 s respectively. The equilibrium binding constant KD was determined by the ratio of the binding rate constants kd/ka.

Mouse IL-11 [2] = molecular target: T2, Mouse IL-11 (mouse, UniProt P47873 22-199, limits assumed); assay: SPR, BIAcore T200; KD from kd/ka
T2 construct: also called murine IL-11; recombinant murine IL-11
T2 sequence (looked up): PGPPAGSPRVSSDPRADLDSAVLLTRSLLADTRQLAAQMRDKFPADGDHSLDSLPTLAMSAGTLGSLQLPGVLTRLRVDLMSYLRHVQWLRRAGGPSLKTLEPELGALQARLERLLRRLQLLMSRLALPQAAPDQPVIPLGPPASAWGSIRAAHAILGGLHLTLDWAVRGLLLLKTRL
Method: as §1

[3] = molecular target: T3, FLAG-tagged human IL-11 expressed at the surface of transiently transfected cells (human, UniProt P20809 22-199); assay: flow cytometry, hybridoma supernatant on cells transfected with pB1-IL11-hum.FL
T3 construct: also called IL-11 expressing HEK cells; target cells expressing human IL-11 at their surface; not shown: FLAG tag added to the N-terminus
T3 sequence: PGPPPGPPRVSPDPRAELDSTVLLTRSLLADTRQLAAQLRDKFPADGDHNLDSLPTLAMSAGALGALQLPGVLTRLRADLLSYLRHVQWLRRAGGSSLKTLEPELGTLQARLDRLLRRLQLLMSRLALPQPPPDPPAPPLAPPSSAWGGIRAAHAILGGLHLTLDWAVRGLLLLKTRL

Human IL-11 [4] = molecular target: T1, Human IL-11; assay: SPR, BIAcore T200; sensorgrams with association to 250 s and dissociation to 750 s
Method: as §1

Mouse IL-11 [5] = molecular target: T2, Mouse IL-11; assay: real-time binding kinetics; the text says SPR (BIAcore T200), the sheet's axis reads Binding [nm]
Method: as §1

[6] = molecular target: T3, FLAG-tagged human IL-11 expressed at …; assay: flow cytometry, hybridoma supernatant on cells transfected with pB1-IL11-hum.FL; relative to the anti-FLAG positive control (100%)

B1: BSN-3C6 (antibody, V domains shown)
VH: EVQLQQSGPELVKPGASVKIPCKASGYTFTDYNMDWVKQSHGKSLEWIGDINPHNGGPIYNQKFTGKATLTVDKSSSTAYMELRSLTSEDTAVYYCARGELGHWYFDVWGTGTTVTVSS
VL: DIVLTQSPASLAVSLGQRATISCRASKSVSTSGYSYIHWYQQKPGQPPKLLIYLASNLDSGVPARFSGSGSGTDFTLNIHPVEEEDAATYYCQHSRDLPPTFGGGTKLEIK
notes: Mouse monoclonal antibody from a hybridoma; also called A6; anti-IL-11 antibody clone BSN-3C6
- Kd (Human IL-11 [1]): 4.14 nM
- Kd (Mouse IL-11 [2]): 2.38 nM
- GMFI [3]: 222000
- koff (Human IL-11 [4]): 0.000635 s⁻¹
- kon (Human IL-11 [4]): 153000 M⁻¹ s⁻¹
- koff (Mouse IL-11 [5]): 0.000112 s⁻¹
- kon (Mouse IL-11 [5]): 46900 M⁻¹ s⁻¹
- binding relative to anti-FLAG positive control [6]: 176%

Source: US20210230266A1 (SINGAPORE HEALTH SERVICES PTE, published 2021)
